# Results from article PMC5910400 (2018).
# Assays:
# Experiment in all cases: BLI
# [1] = molecular target: T1, CCL4L1 (Homo sapiens)
# T1 chain: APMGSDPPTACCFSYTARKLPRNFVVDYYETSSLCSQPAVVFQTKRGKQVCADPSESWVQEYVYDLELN
# [2] = molecular target: CCL7 (human, UniProt P80098 24-99)
# [3] = molecular target: T2, CCL21 (human, UniProt O00585 24-134)
# T2 chain: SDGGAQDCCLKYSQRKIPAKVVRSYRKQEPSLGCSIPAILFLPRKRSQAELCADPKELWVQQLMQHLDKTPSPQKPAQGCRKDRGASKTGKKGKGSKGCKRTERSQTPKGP
# [4] = molecular target: T3, CCL1 (human, UniProt P22362 24-96)
# T3 chain: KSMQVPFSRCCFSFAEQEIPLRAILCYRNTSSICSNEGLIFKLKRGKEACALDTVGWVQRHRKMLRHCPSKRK
# [5] = molecular target: T4, CCL23 (human, UniProt P55773 22-120)
# T4 chain: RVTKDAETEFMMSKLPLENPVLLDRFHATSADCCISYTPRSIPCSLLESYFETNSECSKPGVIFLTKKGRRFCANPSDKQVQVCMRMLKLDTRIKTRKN
# [6] = molecular target: T5, CCL8 (Homo sapiens)
# T5 chain: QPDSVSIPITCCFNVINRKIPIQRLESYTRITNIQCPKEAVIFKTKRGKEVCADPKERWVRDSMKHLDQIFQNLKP
# [7] = molecular target: T6, CCL4 (Homo sapiens)
# T6 chain: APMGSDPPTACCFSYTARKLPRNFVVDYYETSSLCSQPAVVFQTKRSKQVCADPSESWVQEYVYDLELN
# [8] = molecular target: T7, CCL16 (Homo sapiens)
# T7 chain: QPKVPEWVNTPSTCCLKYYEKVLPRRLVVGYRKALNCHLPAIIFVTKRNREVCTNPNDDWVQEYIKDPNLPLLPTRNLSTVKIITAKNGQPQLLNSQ
# [9] = molecular target: T8, CCL19 (Homo sapiens)
# T8 chain: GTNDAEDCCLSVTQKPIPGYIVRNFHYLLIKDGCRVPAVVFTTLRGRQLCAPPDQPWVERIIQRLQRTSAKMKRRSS
# [10] = molecular target: T9, CCL18 (Homo sapiens)
# T9 chain: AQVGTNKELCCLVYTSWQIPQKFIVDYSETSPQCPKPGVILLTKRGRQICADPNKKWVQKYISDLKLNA
# [11] = molecular target: T10, CCL5 (human, UniProt P13501 24-91)
# T10 chain: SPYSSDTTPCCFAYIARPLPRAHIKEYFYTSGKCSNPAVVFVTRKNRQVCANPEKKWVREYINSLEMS
# [12] = molecular target: T11, CCL17 (Homo sapiens)
# T11 chain: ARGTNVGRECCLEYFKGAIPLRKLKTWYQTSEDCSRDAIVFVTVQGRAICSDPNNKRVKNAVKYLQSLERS
# [13] = molecular target: T12, CCL22 (human, UniProt O00626 25-93)
# T12 chain: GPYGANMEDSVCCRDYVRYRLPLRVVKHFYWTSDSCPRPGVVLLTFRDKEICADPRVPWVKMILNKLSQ
# [14] = molecular target: CCL13 (human, UniProt Q99616 24-98)
# [15] = molecular target: T13, CCL27 (Homo sapiens)
# T13 chain: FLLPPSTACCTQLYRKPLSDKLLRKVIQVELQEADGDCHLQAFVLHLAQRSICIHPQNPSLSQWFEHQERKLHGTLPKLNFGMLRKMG
# [16] = molecular target: T14, CCL24 (Homo sapiens)
# T14 chain: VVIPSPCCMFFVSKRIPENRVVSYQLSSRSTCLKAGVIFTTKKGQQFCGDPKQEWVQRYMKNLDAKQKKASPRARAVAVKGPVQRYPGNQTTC
# [17] = molecular target: T15, CCL3L1 (human, UniProt P16619 24-93)
# T15 chain: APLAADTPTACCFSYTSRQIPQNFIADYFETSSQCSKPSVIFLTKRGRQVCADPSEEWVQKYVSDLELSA
# [18] = molecular target: T16, CCL14 (Homo sapiens)
# T16 chain: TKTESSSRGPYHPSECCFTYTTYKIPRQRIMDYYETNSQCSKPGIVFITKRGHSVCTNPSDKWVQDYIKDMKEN
# [19] = molecular target: T17, CCL3 (human, UniProt P10147 24-92)
# T17 chain: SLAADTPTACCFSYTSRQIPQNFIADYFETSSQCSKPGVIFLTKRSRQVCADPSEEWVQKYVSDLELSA
# [20] = molecular target: T18, CCL15 (Homo sapiens)
# T18 chain: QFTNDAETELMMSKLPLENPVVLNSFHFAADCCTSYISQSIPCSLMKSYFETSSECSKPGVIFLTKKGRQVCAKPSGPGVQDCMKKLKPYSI
# [21] = molecular target: CCL11 (Homo sapiens)
# CCL11 (Homo sapiens), sequence (chain, as listed by the source): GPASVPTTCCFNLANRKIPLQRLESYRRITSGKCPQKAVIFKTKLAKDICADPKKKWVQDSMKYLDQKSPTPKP
# CCL13, sequence (Q99616 24-98): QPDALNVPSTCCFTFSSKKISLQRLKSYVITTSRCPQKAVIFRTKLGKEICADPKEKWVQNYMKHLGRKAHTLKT
# CCL7, sequence (P80098 24-99): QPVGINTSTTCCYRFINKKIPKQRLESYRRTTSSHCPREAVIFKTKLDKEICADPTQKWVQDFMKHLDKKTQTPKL
binder,measurement,setting,value
"P1243 (evasin from Amblyomma americanum), purified, C-terminal StrepII:8xHis tag (natural protein) ETGRNHTEDNSTEYYDYEEARCACPARHLNNTNGTVLKLLGCHYFCNGTLCTAPDGYPCYNLTAQQVRTLTTYPNTSCAVGVCMKGTCVKNGTMEQCFKTP",Kd,[1],15.7 nM
same,Kd,[2],49.3 nM
same,Kd,[3],26 nM
same,Kd,[4],20 nM
same,Kd,[5],0.772 nM
same,Kd,[6],56.3 nM
same,Kd,[7],12.2 nM
same,Kd,[8],1.3 nM
same,Kd,[9],3.9 nM
same,Kd,[10],0.663 nM
same,Kd,[11],3.79 nM
same,Kd,[12],6.1 nM
same,Kd,[13],13 nM
same,Kd,[14],1.4 nM
same,Kd,[15],24 nM
same,Kd,[16],13 nM
same,Kd,[17],8.97 nM
same,Kd,[18],4.33 nM
same,Kd,[19],35.5 nM
same,Kd,[20],9.78 nM
same,Kd,[21],6.69 nM
